Molecular target: T1, MMP-2 (Mus musculus, UniProt P33434)
T1 construct: purchased R&D Systems
Assay: MMP inhibition assay (FRET peptide substrate), APMA-activated pro-MMP-2
Type: biochemical
Procedure: RFU, relative fluorescence unit, was obtained by considering the read out in PBS as 100%. Each reaction was performed in triplicate. Standard errors were depicted as a bar in each graph. Differences between values of PBS and CLU or SB-3CT reactions were statistically significant by Student t-test: *P=0.0004, **P=0.0001, +P=0.0003, and ++P=0.01. Gelatin zymography was performed with the samples pooled from each reaction set. Pro-MMPs, processed MMPs (MMP-9 or MMP-2), and C-terminal truncated, processed MMP-9 (MMP-9-ΔC) were indicated by arrows. (B) Dose-dependent inhibition of MMP-9 by CLU or SB-3CT was performed in the same condition. MMPs were mixed with CLD in TSCB buffer, 50 mM Tris-HCI, pH, 7.5, 150 mM NaCl, 5 mM CaCl2, 0.002% Brij35 (or otherwise indicated concentration) 30 min prior to substrate addition, and incubated for 3 h at RT in the presence or absence of 0.02 mM p-aminophenylmercuric acetate (APMA). MMP activity was measured using a 5-FAM/QXL520 fluorescence resonance energy transfer (FRET) peptide as a substrate (EXlEm=490 nm/520 nm) (AnaSpec, Fremont, Calif.), according to the manufacturer's protocol. Relative fluorescence unit (RFU) was obtained by subtracting the values of APMA- or enzyme-omitted reactions from those of test samples, and then considering the fluorescence unit of a PBS (vehicle) sample as 100%. Enzyme reactions were performed in black 96-well plate, containing combinations of 10 ng, 5 ng, 5 ng, 10 ng, 2.5 μg, 2.5 μg of MMP-2, MMP-7, catalytic domain of MMP-9, MMP-9, CCLU, and/or BSA, respectively, in 50 μl reaction volume. As MMP substrates (0.4 μM), 520 MMP FRET substrate […] (SEQ ID NO: 9), was used for MMP-2 and MMP-9, and 520 MMP FRET substrate XIV, […] […] Fluorescence was monitored using a Victor^3TM V multilabel counter (PerkinElmer). […] To determine whether MMP-9/CLU interaction affects the cleavage process of the propeptide of MMP-9 and/or interferes with enzymatic activity of the processed active enzyme, we performed an in vitro MMP-9 inhibition assay, by adopting FRET assay using a fluorescence-quenched peptide substrate (FIG. 3A). […] We incubated pro-MMP-9 with PBS, CLU, SB-3CT, or BSA, and a fluorescence peptide substrate in the presence or absence of APMA. […] We monitored the change in fluorescence value during the incubation of the reactions up to 3 h, which reflects the enzymatic activity of APMA-activated MMPs. […] At 3 h post incubation, the activity difference was read and reaction products were resolved by gelatin zymography. […] When the processed enzyme products were resolved on the gel, three bands were detected in the APMA-treated samples, pro-MMP-9, propeptide-cleaved MMP-9 (MMP-9), and MMP-9 with both propeptide and C-terminal region cleaved (MMP-9-ΔC), whereas only pro-MMP-9 was detected in APMA-omitted samples. […]

T1 sequence (P33434 110-662): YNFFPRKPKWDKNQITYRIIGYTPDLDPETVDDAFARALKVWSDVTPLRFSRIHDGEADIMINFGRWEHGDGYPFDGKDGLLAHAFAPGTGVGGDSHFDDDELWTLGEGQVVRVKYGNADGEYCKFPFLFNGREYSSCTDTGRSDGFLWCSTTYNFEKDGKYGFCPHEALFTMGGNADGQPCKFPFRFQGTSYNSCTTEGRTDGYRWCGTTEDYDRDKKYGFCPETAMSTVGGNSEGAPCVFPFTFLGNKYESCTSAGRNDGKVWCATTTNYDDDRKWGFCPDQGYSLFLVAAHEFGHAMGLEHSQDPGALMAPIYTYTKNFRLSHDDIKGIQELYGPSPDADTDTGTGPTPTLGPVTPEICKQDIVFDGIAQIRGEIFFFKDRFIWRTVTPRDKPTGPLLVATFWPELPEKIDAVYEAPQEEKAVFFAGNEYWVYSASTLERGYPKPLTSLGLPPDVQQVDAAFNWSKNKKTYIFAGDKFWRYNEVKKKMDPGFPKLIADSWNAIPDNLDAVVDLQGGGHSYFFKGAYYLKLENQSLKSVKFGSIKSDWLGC

effect on APMA-induced processing of MMP-2 (gel analysis) (APMA-treated reactions): processing of MMP-2 was not altered
inhibition of MMP-2 activity (CLU 50 μg/ml (0.63 μM), APMA, RT 3 h): 72%
B1: CLU: secreted disulfide-linked heterodimeric glycoprotein (70-80 KD); assays used recombinant mouse CLU with C-terminal (His)6 (protein, UniProt Q06890 22-448, looked up)
Clusterin: EQEVSDNELQELSTQGSRYINKEIQNAVQGVKHIKTLIEKTNAERKSLLNSLEEAKKKKEDALEDTRDSEMKLKAFPEVCNETMMALWEECKPCLKHTCMKFYARVCRSGSGLVGQQLEEFLNQSSPFYFWMNGDRIDSLLESDRQQSQVLDAMQDSFARASGIIDTLFQDRFFARELHDPHYFSPIGFPHKRPHFLYPKSRLVRSLMSPSHYGPPSFHNMFQPFFEMIHQAQQAMDVQLHSPAFQFPDVDFLREGEDDRTVCKEIRRNSTGCLKMKGQCEKCQEILSVDCSTNNPAQANLRQELNDSLQVAERLTEQYKELLQSFQSKMLNTSSLLEQLNDQFNWVSQLANLTQGEDKYYLRVSTVTTHSSDSEVPSRVTEVVVKLFDSDPITVVLPEEVSKDNPKFMDTVAEKALQEYRRKSRAE
modifications: C-terminal His6 tag
potency on MMP-2 compared with SB-3CT (CLU 50 μg/ml or 0.63 μM versus SB-3CT 1 μM): more potent inhibitor of both MMP-9 and MMP-2 than SB-3CT
MMP-2 inhibition at high detergent concentration (buffer with 0.04% Brij 35 or NP-40): inhibited by CLU in both buffers to the extent similar to that in the lower detergent concentration

From US10398755B2, “Clusterin pharmaceuticals and treatment methods using the same” (UNIVERSITY OF SOUTHERN CALIFORNIA, priority 2009, dated 2019)
